Test results taken from patent US20180140673A1 (Novo Nordisk, published 2018).
Residue numbers refer to the chain shown, from its start. Where two headings read alike, the source gives them in different places. Values belong to the binder of their own block, whether it stands above or below them.

What was measured:
Experiment in all cases: cell-based or functional assay
[1] = target: T1, FGFR1c receptor/BKL complex on differentiated mouse 3T3-L1 adipocytes (mouse, UniProt P16092 22-822; Q99N32 1-1043)
[2] = target: T2, FGF receptor/BKL complex on HEK293 cells overexpressing human beta-klotho (BKL) (human, UniProt Q86Z14 1-1044)
[3] = target: T1, FGFR1c receptor/BKL complex on …; remark: listed apart in the source
[4] = target: T2, FGF receptor/BKL complex on HEK293 …; remark: listed apart in the source
[5] = target: T2, FGF receptor/BKL complex on HEK293 …; remark: listed apart in the source

T2 sequence (Q86Z14 whole entry, one chain of several): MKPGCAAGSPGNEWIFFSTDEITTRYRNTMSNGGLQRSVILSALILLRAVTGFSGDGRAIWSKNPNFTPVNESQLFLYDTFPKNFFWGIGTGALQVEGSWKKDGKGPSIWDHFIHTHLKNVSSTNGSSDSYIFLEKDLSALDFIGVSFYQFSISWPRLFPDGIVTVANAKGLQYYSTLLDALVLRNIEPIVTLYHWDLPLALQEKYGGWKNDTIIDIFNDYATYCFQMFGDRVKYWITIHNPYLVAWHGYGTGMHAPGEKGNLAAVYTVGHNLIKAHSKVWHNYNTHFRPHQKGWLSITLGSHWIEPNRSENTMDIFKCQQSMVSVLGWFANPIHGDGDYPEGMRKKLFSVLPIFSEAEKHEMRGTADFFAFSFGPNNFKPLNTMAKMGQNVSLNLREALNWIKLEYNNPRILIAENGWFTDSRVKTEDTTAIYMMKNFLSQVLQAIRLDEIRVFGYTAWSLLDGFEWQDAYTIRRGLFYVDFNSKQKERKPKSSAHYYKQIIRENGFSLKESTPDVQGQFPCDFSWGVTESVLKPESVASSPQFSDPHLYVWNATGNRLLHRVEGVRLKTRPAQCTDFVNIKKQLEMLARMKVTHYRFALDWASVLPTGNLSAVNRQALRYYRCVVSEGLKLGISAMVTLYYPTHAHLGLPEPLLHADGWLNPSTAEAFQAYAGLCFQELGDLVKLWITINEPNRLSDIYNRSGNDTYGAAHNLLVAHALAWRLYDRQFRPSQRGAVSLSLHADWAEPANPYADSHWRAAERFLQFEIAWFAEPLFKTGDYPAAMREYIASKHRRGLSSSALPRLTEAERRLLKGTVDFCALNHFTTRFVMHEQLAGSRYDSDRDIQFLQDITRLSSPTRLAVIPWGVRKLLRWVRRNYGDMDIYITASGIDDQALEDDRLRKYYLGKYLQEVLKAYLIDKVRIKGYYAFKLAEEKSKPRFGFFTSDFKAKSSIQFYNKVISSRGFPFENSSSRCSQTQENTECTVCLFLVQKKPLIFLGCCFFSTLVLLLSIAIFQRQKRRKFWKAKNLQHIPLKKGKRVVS
T1 sequence (P16092 22-822, chain 1 of 2): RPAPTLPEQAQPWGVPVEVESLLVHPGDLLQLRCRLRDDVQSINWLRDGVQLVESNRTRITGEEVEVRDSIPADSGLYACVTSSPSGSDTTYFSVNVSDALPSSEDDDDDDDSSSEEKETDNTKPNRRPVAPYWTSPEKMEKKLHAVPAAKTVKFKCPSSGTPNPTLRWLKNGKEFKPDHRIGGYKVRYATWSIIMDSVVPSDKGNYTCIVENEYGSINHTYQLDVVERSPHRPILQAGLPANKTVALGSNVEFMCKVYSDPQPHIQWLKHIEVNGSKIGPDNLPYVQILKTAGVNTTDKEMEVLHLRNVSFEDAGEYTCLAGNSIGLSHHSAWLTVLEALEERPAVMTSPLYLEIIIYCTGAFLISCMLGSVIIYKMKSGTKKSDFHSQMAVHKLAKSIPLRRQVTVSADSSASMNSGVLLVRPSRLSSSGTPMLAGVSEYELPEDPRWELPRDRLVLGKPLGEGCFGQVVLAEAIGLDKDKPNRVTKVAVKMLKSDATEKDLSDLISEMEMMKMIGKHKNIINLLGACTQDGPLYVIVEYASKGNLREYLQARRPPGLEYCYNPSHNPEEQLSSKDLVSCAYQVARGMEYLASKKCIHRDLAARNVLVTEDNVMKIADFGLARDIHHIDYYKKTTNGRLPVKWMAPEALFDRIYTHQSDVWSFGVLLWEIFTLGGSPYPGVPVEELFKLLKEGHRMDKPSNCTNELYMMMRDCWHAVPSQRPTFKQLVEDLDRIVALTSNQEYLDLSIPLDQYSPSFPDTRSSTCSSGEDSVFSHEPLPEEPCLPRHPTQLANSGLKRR
T1 sequence (Q99N32 whole entry, chain 2 of 2): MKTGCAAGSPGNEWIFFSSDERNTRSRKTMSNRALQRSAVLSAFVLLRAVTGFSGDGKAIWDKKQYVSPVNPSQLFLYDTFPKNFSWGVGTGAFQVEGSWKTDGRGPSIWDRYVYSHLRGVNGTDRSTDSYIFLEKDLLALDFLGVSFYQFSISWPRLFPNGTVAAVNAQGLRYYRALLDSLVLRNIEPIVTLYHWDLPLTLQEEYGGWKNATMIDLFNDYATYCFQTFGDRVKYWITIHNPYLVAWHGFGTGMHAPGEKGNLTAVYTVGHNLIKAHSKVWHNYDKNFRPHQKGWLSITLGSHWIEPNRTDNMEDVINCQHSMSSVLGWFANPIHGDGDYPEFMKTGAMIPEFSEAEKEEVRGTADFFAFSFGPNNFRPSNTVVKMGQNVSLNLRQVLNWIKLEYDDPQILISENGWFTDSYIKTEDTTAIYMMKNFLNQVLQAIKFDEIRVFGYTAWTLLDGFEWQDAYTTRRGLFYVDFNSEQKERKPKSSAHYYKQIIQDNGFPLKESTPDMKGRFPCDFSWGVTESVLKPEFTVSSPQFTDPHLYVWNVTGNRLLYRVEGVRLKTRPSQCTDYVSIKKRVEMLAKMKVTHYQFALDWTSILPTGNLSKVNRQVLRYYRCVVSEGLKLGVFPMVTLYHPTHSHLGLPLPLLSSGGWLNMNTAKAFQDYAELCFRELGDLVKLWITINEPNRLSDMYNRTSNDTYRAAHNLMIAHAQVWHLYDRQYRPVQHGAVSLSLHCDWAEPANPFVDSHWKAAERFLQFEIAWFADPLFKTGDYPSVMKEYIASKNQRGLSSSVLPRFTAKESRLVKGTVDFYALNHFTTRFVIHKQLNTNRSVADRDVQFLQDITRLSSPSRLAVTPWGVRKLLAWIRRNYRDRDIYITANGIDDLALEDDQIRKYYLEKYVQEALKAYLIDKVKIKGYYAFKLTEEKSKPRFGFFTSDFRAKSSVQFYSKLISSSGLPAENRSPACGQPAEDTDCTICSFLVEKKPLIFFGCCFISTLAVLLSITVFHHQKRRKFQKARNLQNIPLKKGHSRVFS

Glucose uptake EC50 (nM), 3T3-L1 adipocytes [1]: 1.2 nM
EC50 (nM), pERK, HEK293/BKL cells [2]: 1.8 nM
B1: MetFGF21 (ligand)
chain: MHPIPDSSPLLQFGGQVRQRYLYTDDAQQTEAHLEIREDGTVGGAADQSPESLLQLKALKPGVIQILGVKTSRFLCQRPDGALYGSLHFDPEACSFRELLLEDGYNVYQSEAHGLPLHLPGNKSPHRDPAPRGPARFLPLPGLPPALPEPPGILAPQPPDVGSSDPLSMVGPSQGRSPSYAS

Glucose uptake EC50 (nM), 3T3-L1 adipocytes [3]: 37 nM
EC50 (0.1% HSA) (nM), pERK, HEK293/BKL cells [4]: 71 nM
EC50 (nM), pERK, HEK293/BKL cells [4]: 16 nM
B2: S{Beta-181}-[2-[2-[[2-[2-[2-[[2-[2-[2-[[(4S)-4-carboxy-4-(17-carboxyheptadecanoyl-amino)butanoyl]amino]ethoxy]ethoxy]acetyl]amino]ethoxy]ethoxy]acetyl]amino]-et … (ligand)
chain: B1 chain with S182C
modifications: Cys181 (numbering of mature human FGF21): side chain on the sulfur atom; protractor C18 diacid; reagent of Example 4.5

EC50 (nM), pERK, HEK293/BKL cells [5]: 8 nM
B3: Ala[Gln121,Leu168,Cys171]FGF21 (ligand)
chain: B1 chain with M1A, N122Q, M169L, P172C
